This note sets out measurements from patent US20210275657A1, “NEOANTIGENS AND USES THEREOF” (BioNTech US Inc., priority 2018, published 2021).

Holding throughout (conditions): remark: other sources report otherwise
The target of experiment [1] is HLA-A02:01 (human). Briefly: peptide-HLA affinity, Example 41.
The target of experiment [2] is HLA-A02:01 (human). Put plainly: peptide-HLA stability, Example 41.
Experiment [3] has as its target HLA-A01:01 (human). Briefly: peptide-HLA affinity, Example 41.
In experiment [4] the target is HLA-A01:01 (human). Briefly: peptide-HLA stability, Example 41.
Experiment [5] concerns the target HLA-A02:01 (human). Briefly: peptide-HLA affinity, Example 36.
In experiment [6] the target is HLA-A02:01 (human). Briefly: peptide-HLA stability, Example 36.
The target of experiment [7] is HLA-A02:01 (human). Put plainly: peptide-HLA affinity, Example 9.
The target of experiment [8] is HLA-A02:01 (human). Put plainly: peptide-HLA stability, Example 9.
Experiment [9] concerns the target HLA-B07:02 (human). Put plainly: peptide-HLA affinity, Example 36.
For experiment [10], the target named is HLA-B08:01 (human). Briefly: peptide-HLA affinity, Example 36.
Experiment [11] concerns the target HLA-B07:02 (human). Put plainly: peptide-HLA stability, Example 36.
Experiment [12] deals with HLA-B08:01 (human). Briefly: peptide-HLA stability, Example 36.
The target in experiment [13] is HLA-A24:02 (human). Put plainly: peptide-HLA affinity, Example 9.
For experiment [14], the target named is HLA-A24:02 (human). Briefly: peptide-HLA stability, Example 9.
In experiment [15] the target is HLA-B08:01 (human). Briefly: peptide-HLA stability, Example 9.
In experiment [16] the target is HLA-A02:01 (human). Briefly: pMHC-I dissociation, 125I-b2m, 37C; average of 2.
Experiment [17] addresses HLA-B08:01 (human). Put plainly: pMHC-I dissociation, 125I-b2m, 37C; average of 2.
Experiment [18] concerns the target HLA-A02:01 (human). Briefly: pMHC-I dissociation, 125I-b2m, 37C; experiment 1.
Experiment [19] deals with HLA-B08:01 (human). Briefly: pMHC-I dissociation, 125I-b2m, 37C; experiment 1.
In experiment [20] the target is HLA-A02:01 (human). Briefly: pMHC-I dissociation, 125I-b2m, 37C; experiment 2.
Experiment [21] concerns the target HLA-B08:01 (human). Put plainly: pMHC-I dissociation, 125I-b2m, 37C; experiment 2.
The target of experiment [22] is HLA-B07:02 (human). Put plainly: peptide-HLA affinity, Example 41.
The target of experiment [23] is HLA-B07:02 (human). Briefly: peptide-HLA stability, Example 41.
The target of experiment [24] is HLA-B08:01 (human). Put plainly: peptide-HLA stability, Example 41.

Regarding IMQLMPFGC, the Affinity in experiment [1] was 1210 nM. This molecule yielded a Stability (1/2 hr) in experiment [2] of 0.37 h.

As to LTSTVQLIM, the Affinity in experiment [3] was 2.89 µM. The Stability (1/2 hr) in experiment [4] was 0.104 h.

YMANGSLLN came in with an Affinity in experiment [5] of 4000 nM. The molecule further came in with a Stability (1/2 hr) in experiment [6] of 0 h.

For CLTSTVQLIM, the Affinity was found to be 8.28 µM in [3] and 537 nM in experiment [1]. Also, the Stability (1/2 hr) in experiment [4] and in experiment [2] was 0 h throughout.

MQLMPFGCLL came in with an Affinity in experiment [1] of 16.3 nM. Further, in experiment [2], the Stability (1/2 hr) is 0.381 h.

In turn, LIMQLMPFG yielded an Affinity in experiment [1] of 3340 nM. The same molecule came in with a Stability (1/2 hr) in experiment [2] of 0 h.

Turning to ALQPLQPHA, in [7], the Observed MHC affinity was found to be 604 nM. In addition, in [8], the Observed MHC stability turned out to be 1.5 h.

Regarding MANGSLLNYL, the Affinity in experiment [5] is 1010 nM. The molecule also gave a Stability (1/2 hr) in experiment [6] of 0 h.

For SLLNYLREM, the figures for the Affinity in [5], in [9] and in experiment [10] were 67.7 nM, 866 nM and 960 nM, respectively. The figures for the Stability (1/2 hr) in [6], in [11] and in experiment [12] were 3.04 h, 0 h and 0 h, respectively.

As to STVQLIMQL, the Affinity in [1] is 7260 nM. The Stability (1/2 hr) in experiment [2] came out at 0 h.

By half-life is commonly meant how long it takes for the measured level to halve. The low end stands for rapid decline, the high end for slow decline. YMFLKAESKI: the Observed MHC affinity in experiment [13] stood at 7 µM. Further, the Observed MHC stability in experiment [8] stood at 0.6 h; in [14], 1.2 h; in experiment [15], 0.4 h. Moreover, the half-life in experiment [16] was 36 min; in [17], 24 min; in experiment [18], 36 min; in experiment [19], 24 min; in [20] it was 36 min; in experiment [21], 30 min.

With MQLMPFGCL, the Affinity in [1] was 116 nM; in experiment [22], 1590 nM. The figures for the Stability (1/2 hr) in experiment [2], in [23] and in [24] were 0.368 h, 0 h and 0 h, respectively.

In the case of IMQLMPFGCL, the Affinity in [1] is 653 nM. In addition, the results for the Stability (1/2 hr) in experiment [2] and in experiment [24] were 0.516 h and 0 h, respectively.
